Where “and” joins values, the source holds several entries; their conditions need not be identical. Equal values may be shown once.
Legend:
[1] = tested on: COLO 720E human ovarian carcinoma xenografts; assay: Low-dose IMGN901 combination therapy of established subcutaneous COLO 720E xenografts; format: in vivo, mice; conditions: single agent IMGN901 11.4 mg/kg qw×3
Experimental: (§1) Mice were inoculated with human ovarian cancer cell lines and allowed to become established (average tumor size of about 100 mm^3) prior to treatment. Conjugate dosing is described based on DM1 concentration. Efficacy is reported as both the % of tumor growth for treated vs. control (% T/C) and log cell kill (LCK) determined from the tumor doubling time and the tumor growth delay due to the treatment.
The anti-tumor effect of reduced doses of IMGN901 and paclitaxel plus carboplatin was evaluated in established subcutaneous COLO 720E xenografts. When the tumors reached about 100 mm^3 in size (14 days after tumor cell inoculation), the mice were randomly divided into groups of 6 animals each based on tumor volume. Mice were treated with the single agent IMGN901 at a dose of 11.4 mg/kg (qw×3) or the chemotherapeutic combination paclitaxel/carboplatin at either a high-dose (paclitaxel 20 mg/kg, qw×3/carboplatin, 100 mg/kg ip, single injection) or a low-dose (paclitaxel 10 mg/kg, qw×3/carboplatin, 100 mg/kg ip, single injection).

[2] = tested on: COLO 720E human ovarian carcinoma xenografts; assay: Combination therapy of established subcutaneous COLO 720E xenografts; format: in vivo, Athymic nude mice; parameters: key to activity (NCI standards): Percent T/C values less than or equal to 42% and/or LCK values of 0.5 or greater are considered active; percent T/C values less than 10% are considered highly active
Source text: as §1
The anti-tumor effect of a combination of huN901-DM1 and paclitaxel plus carboplatin was evaluated in an established subcutaneous xenograft model of ovarian cancer. Athymic nude mice were inoculated with COLO 720E human ovarian carcinoma cells (1×10^7 cells/animal) injected subcutaneously into the right flank. When the tumors reached about 80 mm^3 in size (10 days after tumor cell inoculation), the mice were randomly divided into six groups (6 animals per group). Mice were treated with the single agent IMGN901 at a dose of 13 mg/kg once weekly for three weeks (day 10, 17 and 24 post tumor cell inoculation) administered intravenously. Two additional groups of mice were treated with the combination chemotherapy regimen paclitaxel/carboplatin at two dose levels: a high-dose group of paclitaxel (20 mg/kg iv, weekly for 3 weeks)/carboplatin (100 mg/kg ip, single injection) and a low-dose group of paclitaxel (10 mg/kg iv, weekly for 3 weeks)/carboplatin (100 mg/kg ip, single injection). Two additional groups were treated with the combination of IMGN901 and either high-dose or low-dose paclitaxel/carboplatin with the same doses and routes of administration as for individual treatments. Tumor growth was monitored by measuring tumor size twice per week. Tumor size was calculated with the formula: length×width×height×½.

[3] = tested on: OVCAR-3 human ovarian carcinoma xenografts; assay: Anti-tumor effect in established subcutaneous OVCAR-3 ovarian carcinoma xenografts; format: in vivo, SCID mice; parameters: key to activity (NCI standards): Percent T/C values less than or equal to 42% and/or LCK values of 0.5 or greater are considered active; percent T/C values less than 10% are considered highly active
Experimental: as §1
The anti-tumor effect of IMGN901 was evaluated in an established subcutaneous xenograft model of ovarian carcinoma. SCID mice were inoculated with OVCAR-3 ovarian carcinoma cells (1×10^7 cells/animal) injected subcutaneously into the right flank. When the tumors reached about 100 mm^3 in size (24 days after tumor cell inoculation), the mice were randomly divided into three groups (6 animals per group). Mice were treated with the single agent IMGN901 at 6.5 mg/kg and 13 mg/kg, respectively, administered intravenously once weekly for three weeks (day 24, 31, […]). A control group of animals received PBS administered intravenously at the same schedule. Tumor growth was monitored by measuring tumor size twice per week. Tumor size was calculated with the formula: length×width×height×½.

[4] = tested on: COLO 720E human ovarian carcinoma xenografts; assay: Dose-response anti-tumor activity in established subcutaneous COLO 720E xenografts; format: in vivo, SCID mice; parameters: key to activity (NCI standards): Percent T/C values less than or equal to 42% and/or LCK values of 0.5 or greater are considered active; percent T/C values less than 10% are considered highly active; conditions: for complete regressions (CR) / partial regressions (PR) / mice remaining tumor free at the end of the study: 6 mice; for mice remaining tumor free at the end of the study: 119 days
Experimental: as §1
The anti-tumor effect of IMGN901 was evaluated in an established subcutaneous xenograft model of ovarian carcinoma. SCID mice were inoculated with COLO 720E ovarian carcinoma cells (1×10^7 cells/animal) injected subcutaneously into the right flank. (The COLO 720E human ovarian adenocarcinoma cell line was obtained from the European Collection of Cell Cultures (ECACC, catalog no. 93072111).) When the tumors reached about 100 mm^3 in size (10 days after tumor cell inoculation), the mice were randomly divided into four groups (6 animals per group). Mice were treated with the single agent IMGN901 at 6, 12 and 24 mg/kg, respectively, administered intravenously once weekly for three weeks (day 10, 17 and 24). A control group of animals received PBS administered intravenously at the same schedule. Tumor growth was monitored by measuring tumor size twice per week. Tumor size was calculated with the formula: length×width×height×½.

[5] = single-agent IMGN901 13 mg/kg iv once weekly for three weeks
[6] = IMGN901 13 mg/kg iv once weekly for three weeks
[7] = 24 mg/kg iv once weekly for three weeks

B1: IMGN901 (conjugate, chains of the INN, looked up)
VH: QVQLVESGGGVVQPGRSLRLSCAASGFTFSSFGMHWVRQAPGKGLEWVAYISSGSFTIYYADSVKGRFTISRDNSKNTLYLQMNSLRAEDTAVYYCARMRKGYAMDYWGQGTLVTVSS
VL: DVVMTQSPLSLPVTLGQPASISCRSSQIIIHSDGNTYLEWFQQRPGQSPRRLIYKVSNRFSGVPDRFSGSGSGTDFTLKISRVEAEDVGVYYCFQGSHVPHTFGQGTKVEIK
modifications: mertansine (DM1) conjugate
Response [1]: inactive | T/C [1]: 62% | CR ([1]; 11.4 mg/kg): no partial (PR) or complete regressions (CR) and 0/6 | PR ([1]; 11.4 mg/kg): no partial (PR) or complete regressions (CR) and 1/6 | T/C [2, 5]: 32% | activity (NCI standards) [2, 5]: active | complete regression [2, 5]: one of six | partial tumor regressions [2, 5]: Two of six | tumor-free survivors ([2]; single-agent IMGN901 13 mg/kg, end of study day 123): no tumor-free survivors | activity (NCI standards) ([3]; IMGN901 6.5 mg/kg iv once weekly for three weeks): inactive | activity (NCI standards) [3, 6]: active | tumor growth inhibition (T/C) [3, 6]: 21% | activity (NCI standards) ([4]; 6 mg/kg iv once weekly for three weeks): inactive | activity (NCI standards) ([4]; 12 mg/kg iv weekly for 3 weeks): active | mice exhibiting tumor regressions ([4]; 12 mg/kg iv weekly for 3 weeks): Four of 6 | tumor growth inhibition value (T/C) ([4]; 12 mg/kg iv weekly for 3 weeks): 18% | complete regressions (CR) ([4]; 12 mg/kg iv weekly for 3 weeks): 2 | partial regressions (PR) ([4]; 12 mg/kg iv weekly for 3 weeks): 4 | mice remaining tumor free at the end of the study ([4]; 12 mg/kg iv weekly for 3 weeks): one | activity (NCI standards) [4, 7]: highly active (percent T/C values less than 10% are considered highly active) | mice exhibiting tumor regressions [4, 7]: six | tumor growth inhibition value (T/C) [4, 7]: 0% | complete regressions (CR) [4, 7]: 6 | partial regressions (PR) [4, 7]: 6 | mice remaining tumor free at the end of the study [4, 7]: four

Source: US20110177064A1, “Compositions and Methods for Treatment of Ovarian Cancer” (priority 2010, published 2011)
